This note sets out measurements from PMC9377714, “Unconventional tonicity-regulated nuclear trafficking of NFAT5 mediated by KPNB1, XPOT and RUVBL2” (Journal of Cell Science, 2022).

The Kd is the equilibrium constant for the complex coming apart. Low values mean higher affinity, high ones lower affinity.

What all share (details): both partners purified
Assay [1] concerns the target T1, His–KPNB1 (UniProt Q14974 1-876).
T1 construct: KPNB1 (karyopherin β1, importin β1), full length, in a modified pET 30a vector; In the pull-down it was held on Ni-NTA by the His tag; also called full-length KPNB1; source: E. coli BL21 (DE3), purified (HisTrap HP)
Put plainly: ITC; NFAT5_(171–253) at 600 μM titrated into 20 μM full-length KPNB1; 10 mM Na2HPO4, 1.8 mM KH2PO4, 2.7 mM KCl, pH 7.4, 150 mM NaCl; MicroCal PEAQ-ITC. Background: Isothermal titration calorimetry measures the heat released or taken up as one component is titrated into another.

The target of assay [2] is T1, His–KPNB1. Put plainly: pull-down; His–KPNB1 immobilised on Ni-NTA agarose, GST fusion proteins added, 4°C overnight; washes with 20 mM sodium phosphate, 100 mM NaCl, 40 mM imidazole, 10% glycerol; SDS–PAGE and Coomassie Blue.
Assay [3] addresses T1, His–KPNB1. Briefly: ITC; NFAT5 fragment at 1.5–1.75 mM titrated into 50 μM full-length KPNB1; 50 mM Tris-HCl pH 8.0, 150 mM NaCl; MicroCal PEAQ-ITC.

T1 sequence (Q14974 whole entry): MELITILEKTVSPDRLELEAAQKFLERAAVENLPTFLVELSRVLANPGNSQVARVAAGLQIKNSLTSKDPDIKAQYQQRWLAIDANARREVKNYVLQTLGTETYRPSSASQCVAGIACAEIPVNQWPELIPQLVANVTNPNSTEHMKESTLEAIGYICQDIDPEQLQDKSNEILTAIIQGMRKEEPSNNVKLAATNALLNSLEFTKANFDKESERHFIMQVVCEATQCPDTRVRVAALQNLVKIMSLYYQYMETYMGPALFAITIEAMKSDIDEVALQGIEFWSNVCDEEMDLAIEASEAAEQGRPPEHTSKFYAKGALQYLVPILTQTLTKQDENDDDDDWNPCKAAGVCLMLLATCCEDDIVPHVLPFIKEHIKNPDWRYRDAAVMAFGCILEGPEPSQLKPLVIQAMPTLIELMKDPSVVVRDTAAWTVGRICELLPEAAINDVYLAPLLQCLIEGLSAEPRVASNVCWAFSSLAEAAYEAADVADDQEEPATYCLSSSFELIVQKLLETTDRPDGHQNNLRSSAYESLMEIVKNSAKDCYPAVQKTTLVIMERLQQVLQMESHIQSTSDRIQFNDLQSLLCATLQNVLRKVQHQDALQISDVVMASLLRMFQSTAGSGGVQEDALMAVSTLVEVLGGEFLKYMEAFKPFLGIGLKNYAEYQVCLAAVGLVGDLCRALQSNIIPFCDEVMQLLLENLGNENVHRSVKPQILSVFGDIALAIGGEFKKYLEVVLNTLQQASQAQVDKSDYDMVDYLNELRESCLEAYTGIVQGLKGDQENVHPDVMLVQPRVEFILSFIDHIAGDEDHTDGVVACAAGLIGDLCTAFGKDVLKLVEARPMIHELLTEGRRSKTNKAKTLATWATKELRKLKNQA

B1: NFAT5_(171–253) (domain or fragment, UniProt O94916 171-253, looked up)
chain: SCSMWMEDSPSNFSNMSTSSYNDNTEVPRKSRKRNPKQRPGVKRRDCEESNMDIFDADSAKAPHYVLSQLTTDNKGNSKAGNG
notes: source: E. coli BL21 (DE3), purified
In the assay with His–KPNB1 [1], B1 gave a Kd of roughly 1200 nM.

B2: GST–NFAT5_(190–250) (domain or fragment, UniProt O94916 190-250, looked up)
chain: SYNDNTEVPRKSRKRNPKQRPGVKRRDCEESNMDIFDADSAKAPHYVLSQLTTDNKGNSKA
notes: NFAT5 residues 190-250, cloned at the C terminus of GST in pGEX-4T-1; source: E. coli BL21 (DE3), purified (glutathione Sepharose); not shown: GST, N-terminal, kept
On to B2, for which the binding result with His–KPNB1 [2] was “binds”.

B3: NFAT5_(189–216) (domain or fragment, UniProt O94916 189-216, looked up)
chain: SSYNDNTEVPRKSRKRNPKQRPGVKRRD
notes: also called NFAT5-cNLS; source: E. coli BL21 (DE3), purified
Turning to B3, the Kd with His–KPNB1 [3] is roughly 1500 nM.

B4: NFAT5_(151–216) (domain or fragment, UniProt O94916 151-216, looked up)
chain: LLDNSRMSCQDEGCGLESEQSCSMWMEDSPSNFSNMSTSSYNDNTEVPRKSRKRNPKQRPGVKRRD
notes: as for B1
In turn, B4 registered an equilibrium dissociation constant (Kd) with His–KPNB1 [3] of roughly 1300 nM.

B5: GST–NFAT5_(171–220) (domain or fragment, UniProt O94916 171-220, looked up)
chain: SCSMWMEDSPSNFSNMSTSSYNDNTEVPRKSRKRNPKQRPGVKRRDCEES
notes: source: E. coli BL21 (DE3), purified (glutathione Sepharose); not shown: GST, N-terminal, kept
Consider B5, for which the binding result in the assay with His–KPNB1 [2] is recorded as “binds”.

B6: GST–NFAT5_(171–250) (domain or fragment, UniProt O94916 171-250, looked up)
chain: SCSMWMEDSPSNFSNMSTSSYNDNTEVPRKSRKRNPKQRPGVKRRDCEESNMDIFDADSAKAPHYVLSQLTTDNKGNSKA
notes: also called NFAT5-NLS; source: E. coli BL21 (DE3), purified (glutathione Sepharose); not shown: GST, N-terminal, kept
For the molecule B6, in the assay with His–KPNB1 [2], the binding result is on record as “binds”.
